From article PMC4681132 (Nature, 2015)

T1: RNA polymerase III subunit C160 (S. cerevisiae, UniProt P04051 1-1460)
T1 sequence: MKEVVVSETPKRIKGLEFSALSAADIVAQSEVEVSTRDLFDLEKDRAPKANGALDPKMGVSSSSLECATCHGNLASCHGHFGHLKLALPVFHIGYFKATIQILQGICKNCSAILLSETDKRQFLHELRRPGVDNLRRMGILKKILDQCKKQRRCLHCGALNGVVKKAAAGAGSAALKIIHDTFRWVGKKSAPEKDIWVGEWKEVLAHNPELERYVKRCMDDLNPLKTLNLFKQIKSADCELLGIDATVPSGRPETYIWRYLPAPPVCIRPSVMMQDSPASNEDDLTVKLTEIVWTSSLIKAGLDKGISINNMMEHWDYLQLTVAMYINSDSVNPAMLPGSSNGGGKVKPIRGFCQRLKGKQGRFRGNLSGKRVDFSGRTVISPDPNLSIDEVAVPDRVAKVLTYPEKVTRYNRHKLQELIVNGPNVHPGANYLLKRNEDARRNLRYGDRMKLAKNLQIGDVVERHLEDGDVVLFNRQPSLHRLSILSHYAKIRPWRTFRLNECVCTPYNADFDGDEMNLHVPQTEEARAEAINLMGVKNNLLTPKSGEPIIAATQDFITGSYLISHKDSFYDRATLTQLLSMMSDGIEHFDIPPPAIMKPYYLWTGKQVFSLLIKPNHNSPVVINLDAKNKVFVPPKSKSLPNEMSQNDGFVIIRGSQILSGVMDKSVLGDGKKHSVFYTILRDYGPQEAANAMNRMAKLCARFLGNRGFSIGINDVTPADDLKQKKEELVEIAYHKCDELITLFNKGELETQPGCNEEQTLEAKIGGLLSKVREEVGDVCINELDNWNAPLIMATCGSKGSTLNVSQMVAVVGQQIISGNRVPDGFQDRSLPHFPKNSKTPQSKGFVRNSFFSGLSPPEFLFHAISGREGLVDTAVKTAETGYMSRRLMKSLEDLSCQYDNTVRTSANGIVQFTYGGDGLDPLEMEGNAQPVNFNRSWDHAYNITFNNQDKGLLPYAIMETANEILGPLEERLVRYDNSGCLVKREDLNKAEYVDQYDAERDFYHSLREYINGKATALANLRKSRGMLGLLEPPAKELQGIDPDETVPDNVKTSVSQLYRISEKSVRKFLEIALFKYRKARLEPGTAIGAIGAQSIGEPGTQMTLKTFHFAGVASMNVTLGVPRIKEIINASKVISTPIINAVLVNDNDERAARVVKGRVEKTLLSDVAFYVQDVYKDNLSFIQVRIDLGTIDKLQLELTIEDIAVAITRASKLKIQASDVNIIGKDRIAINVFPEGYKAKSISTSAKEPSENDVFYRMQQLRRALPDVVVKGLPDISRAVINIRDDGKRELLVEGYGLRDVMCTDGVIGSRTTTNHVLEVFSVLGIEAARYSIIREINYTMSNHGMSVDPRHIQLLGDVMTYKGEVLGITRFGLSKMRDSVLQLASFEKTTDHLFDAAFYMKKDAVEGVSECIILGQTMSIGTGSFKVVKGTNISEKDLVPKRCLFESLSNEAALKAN

B1: RNA polymerase III subunit C31 (natural protein, S. cerevisiae, UniProt P17890 1-251, looked up)
chain: MSSYRGGSRGGGSNYMSNLPFGLGYGDVGKNHITEFPSIPLPINGPITNKERSLAVKYINFGKTVKDGPFYTGSMSLIIDQQENSKSGKRKPNIILDEDDTNDGIERYSDKYLKKRKIGISIDDHPYNLNLFPNELYNVMGINKKKLLAISKFNNADDVFTGTGLQDENIGLSMLAKLKELAEDVDDASTGDGAAKGSKTGEGEDDDLADDDFEEDEDEEDDDDYNAEKYFNNGDDDDYGDEEDPNEEAAF
B2: Pol III stalk (subunits C17 and C25) (complex, S. cerevisiae)
chain 1: MKVLEERNAFLSDYEVLKFLTDLEKKHLWDQKSLAALKKSRSKGKQNRPYNHPELQGITRNVVNYLSINKNFINQEDEGEERESSGAKDAEKSGISKMSDESFAELMTKLNSFKLFKAEKLQIVNQLPANMVHLYSIVEECDARFDEKTIEEMLEIISGYA
chain 2: MFILSKIADLVRIPPDQFHRDTISAITHQLNNKFANKIIPNVGLCITIYDLLTVEEGQLKPGDGSSYINVTFRAVVFKPFLGEIVTGWISKCTAEGIKVSLLGIFDDIFIPQNMLFEGCYYTPEESAWIWPMDEETKLYFDVNEKIRFRIEREVFVDVKPKSPKERELEERAQLENEIEGKNEETPQNEKPPAYALLGSCQTDGMGLVSWWE
B3: RNA polymerase III stalk subunit C25 (natural protein, S. cerevisiae)
chain: B2 chain 2
B4: RNA polymerase III subunit C82 (natural protein, S. cerevisiae)
chain: MDELLGEALSAENQTGESTVESEKLVTPEDVMTISSLEQRTLNPDLFLYKELVKAHLGERAASVIGMLVALGRLSVRELVEKIDGMDVDSVKTTLVSLTQLRCVKYLQETAISGKKTTYYYYNEEGIHILLYSGLIIDEIITQMRVNDEEEHKQLVAEIVQNVISLGSLTVEDYLSSVTSDSMKYTISSLFVQLCEMGYLIQISKLHYTPIEDLWQFLYEKHYKNIPRNSPLSDLKKRSQAKMNAKTDFAKIINKPNELSQILTVDPKTSLRIVKPTVSLTINLDRFMKGRRSKQLINLAKTRVGSVTAQVYKIALRLTEQKSPKIRDPLTQTGLLQDLEEAKSFQDEAELVEEKTPGLTFNAIDLARHLPAELDLRGSLLSRKPSDNKKRSGSNAAASLPSKKLKTEDGFVIPALPAAVSKSLQESGDTQEEDEEEEDLDADTEDPHSASLINSHLKILASSNFPFLNETKPGVYYVPYSKLMPVLKSSVYEYVIASTLGPSAMRLSRCIRDNKLVSEKIINSTALMKEKDIRSTLASLIRYNSVEIQEVPRTADRSASRAVFLFRCKETHSYNFMRQNLEWNMANLLFKKEKLKQENSTLLKKANRDDVKGRENELLLPSELNQLKMVNERELNVFARLSRLLSLWEVFQMA
B5: RNA polymerase III subunit C34 (natural protein, S. cerevisiae)
chain: MSGMIENGLQLSDNAKTLHSQMMSKGIGALFTQQELQKQMGIGSLTDLMSIVQELLDKNLIKLVKQNDELKFQGVLESEAQKKATMSAEEALVYSYIEASGREGIWSKTIKARTNLHQHVVLKCLKSLESQRYVKSVKSVKFPTRKIYMLYSLQPSVDITGGPWFTDGELDIEFINSLLTIVWRFISENTFPNGFKNFENGPKKNVFYAPNVKNYSTTQEILEFITAAQVANVELTPSNIRSLCEVLVYDDKLEKVTHDCYRVTLESILQMNQGEGEPEAGNKALEDEEEFSIFNYFKMFPASKHDKEVVYFDEWTI

Columns and labels:
Experiment in all cases: cryo-EM structure
[1] = molecular target: B2
[2] = molecular target: B4
[3] = molecular target: T1, RNA polymerase III subunit C160

| Binder | binding result [1] | binding result [2] | binding result [3] |
| --- | --- | --- | --- |
| B1 | binds | binds |  |
| B2 |  |  | binds |
| B3 |  |  | binds |
| B4 |  |  | binds |
| B5 |  | binds | binds |
